B1: CER127: Tim4 binding and transmembrane domains, TRAF2 primary and TLR2 secondary signaling domains; SEQ ID NO:175 (protein)
chain: MSKGLLLLWLVTELWWLYLTPAASEDTIIGFLGQPVTLPCHYLSWSQSRNSMCWGKGSCPNSKCNAELLRTDGTRIISRKSTKYTLLGKVQFGEVSLTISNTNRGDSGVYCCRIEVPGWFNDVKKNVRLELRRATTTKKPTTTTRPTTTPYVTTTTPELLPTTVMTTSVLPTTTPPQTLATTAFSTAVTTCPSTTPGSFSQETTKGSAFTTESETLPASNHSQRSMMTISTDIAVLRPTGSNPGILPSTSQLTTQKTTLTTSESLQKTTKSHQINSRQTILIIACCVGFVLMVLLFLAFLMAAASVTPPGSLELLQPGFSKTLLGTKLEAKYLCSACRNVLRRPFQAQCGHRYCSFCLASILSSGPQNCAACVHEGIYEEGISILESSSAFPDNAARREVESLPAVCPSDGCTWKGTLKEYESCHEGRCPLMLTECPACKGLVRLGEKERHLEHECPERSLSCRHCRAPCCGADVKAHHEVCPKFPLTCDGCGKKKIPREKFQDHVKTCGKCRVPCRFHAIGCLETVEGEKQQEHEVQWLREHLAMLLSSVLEAKPLLGDQSHAGSELLQRCESLEKKTATFENIVCVLNREVERVAMTAEACHRFHGLWYMKMMWAWLQAKRKPRKAPSRNICYDAFVSYSERDAYWVENLMVQELENFNPPFKLCLHKRDFIPGKWIIDNIIDSIEKSHKTVFVLSENFVKSEWCKYELDFSHFRLFDENNDAAILILLEPIEKKAIPQRFCKLRKIMNTKTYLEWPMDEAQREGFWVNLRAAIKS
modifications: CER127 protein
B2: CER30: Tim4 binding and transmembrane domains, Traf2 signaling domain; SEQ ID NO:96 (protein)
chain: MSKGLLLLWLVTELWWLYLTPAASEDTIIGFLGQPVTLPCHYLSWSQSRNSMCWGKGSCPNSKCNAELLRTDGTRIISRKSTKYTLLGKVQFGEVSLTISNTNRGDSGVYCCRIEVPGWFNDVKKNVRLELRRATTTKKPTTTTRPTTTPYVTTTTPELLPTTVMTTSVLPTTTPPQTLATTAFSTAVTTCPSTTPGSFSQETTKGSAFTTESETLPASNHSQRSMMTISTDIAVLRPTGSNPGILPSTSQLTTQKTTLTTSESLQKTTKSHQINSRQTILIIACCVGFVLMVLLFLAFLMAAASVTPPGSLELLQPGFSKTLLGTKLEAKYLCSACRNVLRRPFQAQCGHRYCSFCLASILSSGPQNCAACVHEGIYEEGISILESSSAFPDNAARREVESLPAVCPSDGCTWKGTLKEYESCHEGRCPLMLTECPACKGLVRLGEKERHLEHECPERSLSCRHCRAPCCGADVKAHHEVCPKFPLTCDGCGKKKIPREKFQDHVKTCGKCRVPCRFHAIGCLETVEGEKQQEHEVQWLREHLAMLLSSVLEAKPLLGDQSHAGSELLQRCESLEKKTATFENIVCVLNREVERVAMTAEAC
modifications: CER30 chimeric engulfment receptor
B3: CER129: Tim4 binding and transmembrane domains, TLR8 primary and TRAF2 secondary signaling domains; SEQ ID NO:177 (protein)
chain: MSKGLLLLWLVTELWWLYLTPAASEDTIIGFLGQPVTLPCHYLSWSQSRNSMCWGKGSCPNSKCNAELLRTDGTRIISRKSTKYTLLGKVQFGEVSLTISNTNRGDSGVYCCRIEVPGWFNDVKKNVRLELRRATTTKKPTTTTRPTTTPYVTTTTPELLPTTVMTTSVLPTTTPPQTLATTAFSTAVTTCPSTTPGSFSQETTKGSAFTTESETLPASNHSQRSMMTISTDIAVLRPTGSNPGILPSTSQLTTQKTTLTTSESLQKTTKSHQINSRQTILIIACCVGFVLMVLLFLAFLHHLFYWDVWFIYNVCLAKVKGYRSLSTSQTFYDAYISYDTKDASVTDWVINELRYHLEESRDKNVLLCLEERDWDPGLAIIDNLMQSINQSKKTVFVLTKKYAKSWNFKTAFYLALQRLMDENMDVIIFILLEPVLQHSQYLRLRQRICKSSILQWPDNPKAEGLFWQTLRNVVLTENDSRYNNMYVDSIKQYMAAASVTPPGSLELLQPGFSKTLLGTKLEAKYLCSACRNVLRRPFQAQCGHRYCSFCLASILSSGPQNCAACVHEGIYEEGISILESSSAFPDNAARREVESLPAVCPSDGCTWKGTLKEYESCHEGRCPLMLTECPACKGLVRLGEKERHLEHECPERSLSCRHCRAPCCGADVKAHHEVCPKFPLTCDGCGKKKIPREKFQDHVKTCGKCRVPCRFHAIGCLETVEGEKQQEHEVQWLREHLAMLLSSVLEAKPLLGDQSHAGSELLQRCESLEKKTATFENIVCVLNREVERVAMTAEAC
modifications: CER129 protein
B4: CER108: Tim4 binding and transmembrane domains, DAP12 primary and TLR8 secondary signaling domains; SEQ ID NO:137 (protein)
chain: MSKGLLLLWLVTELWWLYLTPAASEDTIIGFLGQPVTLPCHYLSWSQSRNSMCWGKGSCPNSKCNAELLRTDGTRIISRKSTKYTLLGKVQFGEVSLTISNTNRGDSGVYCCRIEVPGWFNDVKKNVRLELRRATTTKKPTTTTRPTTTPYVTTTTPELLPTTVMTTSVLPTTTPPQTLATTAFSTAVTTCPSTTPGSFSQETTKGSAFTTESETLPASNHSQRSMMTISTDIAVLRPTGSNPGILPSTSQLTTQKTTLTTSESLQKTTKSHQINSRQTILIIACCVGFVLMVLLFLAFLYFLGRLVPRGRGAAEAATRKQRITETESPYQELQGQRSDVYSDLNTQRPYYKHHLFYWDVWFIYNVCLAKVKGYRSLSTSQTFYDAYISYDTKDASVTDWVINELRYHLEESRDKNVLLCLEERDWDPGLAIIDNLMQSINQSKKTVFVLTKKYAKSWNFKTAFYLALQRLMDENMDVIIFILLEPVLQHSQYLRLRQRICKSSILQWPDNPKAEGLFWQTLRNVVLTENDSRYNNMYVDSIKQY
modifications: CER108 protein
B5: CER124: Tim4 binding and transmembrane domains, TLR2 primary and NFAM1 secondary signaling domains; SEQ ID NO:151 (protein)
chain: MSKGLLLLWLVTELWWLYLTPAASEDTIIGFLGQPVTLPCHYLSWSQSRNSMCWGKGSCPNSKCNAELLRTDGTRIISRKSTKYTLLGKVQFGEVSLTISNTNRGDSGVYCCRIEVPGWFNDVKKNVRLELRRATTTKKPTTTTRPTTTPYVTTTTPELLPTTVMTTSVLPTTTPPQTLATTAFSTAVTTCPSTTPGSFSQETTKGSAFTTESETLPASNHSQRSMMTISTDIAVLRPTGSNPGILPSTSQLTTQKTTLTTSESLQKTTKSHQINSRQTILIIACCVGFVLMVLLFLAFLHRFHGLWYMKMMWAWLQAKRKPRKAPSRNICYDAFVSYSERDAYWVENLMVQELENFNPPFKLCLHKRDFIPGKWIIDNIIDSIEKSHKTVFVLSENFVKSEWCKYELDFSHFRLFDENNDAAILILLEPIEKKAIPQRFCKLRKIMNTKTYLEWPMDEAQREGFWVNLRAAIKSLWNKKRMRGPGKDPTRKCPDPRSASSPKQHPSESVYTALQRRETEVYACIENEDGSSPTAKQSPLSQERPHRFEDDGELNLVYENL
modifications: CER124 protein
B6: CER27: Tim4 binding and transmembrane domains, TLR2 signaling domain; SEQ ID NO:93 (protein)
chain: MSKGLLLLWLVTELWWLYLTPAASEDTIIGFLGQPVTLPCHYLSWSQSRNSMCWGKGSCPNSKCNAELLRTDGTRIISRKSTKYTLLGKVQFGEVSLTISNTNRGDSGVYCCRIEVPGWFNDVKKNVRLELRRATTTKKPTTTTRPTTTPYVTTTTPELLPTTVMTTSVLPTTTPPQTLATTAFSTAVTTCPSTTPGSFSQETTKGSAFTTESETLPASNHSQRSMMTISTDIAVLRPTGSNPGILPSTSQLTTQKTTLTTSESLQKTTKSHQINSRQTILIIACCVGFVLMVLLFLAFLHRFHGLWYMKMMWAWLQAKRKPRKAPSRNICYDAFVSYSERDAYWVENLMVQELENFNPPFKLCLHKRDFIPGKWIIDNIIDSIEKSHKTVFVLSENFVKSEWCKYELDFSHFRLFDENNDAAILILLEPIEKKAIPQRFCKLRKIMNTKTYLEWPMDEAQREGFWVNLRAAIKS
modifications: CER27 chimeric engulfment receptor

The molecules below were run on H1975 lung adenocarcinoma cells (assay: LDH assay, H1975 cells, 48 hours co-culture with 1 μM Osimeritinib). Conditions: E:T 1:1, 48 hours, CD4+ T cells.
Assay type: cell-based
Source text: CER30 comprises a Tim4 binding domain, Tim4 transmembrane domain, and an engulfment signaling domain comprising a primary engulfment signaling domain comprising a TRAF2 signaling domain. CER30 has a polypeptide sequence as set forth in SEQ ID NO:96. CER110 has a polypeptide sequence of SEQ ID NO:125 and comprises a Tim4 binding domain, Tim4 transmembrane domain, and an engulfment signaling domain comprising a primary engulfment signaling domain comprising a TRAF6 signaling domain and a secondary engulfment signaling domain comprising a DAP12 signaling domain. CER112 has a polypeptide sequence of SEQ ID NO:128 and comprises a Tim4 binding domain, Tim4 transmembrane domain, and an engulfment signaling domain comprising a primary engulfment signaling domain comprising a TRAF6 signaling domain and a secondary engulfment signaling domain comprising a NFAM1 signaling domain. CER127 has a polypeptide sequence of SEQ ID NO:175 and comprises a Tim4 binding domain, Tim4 transmembrane domain, and an engulfment signaling domain comprising a primary engulfment signaling domain comprising a TRAF2 signaling domain and a secondary engulfment signaling domain comprising a TLR2 signaling domain. H1975 cells are more resistant to EGFR inhibitors, so Osimeritinib was used at slightly higher concentration. H1975 lung adenocarcinoma cells harboring an EGFR mutation were co-cultured with CER-expressing or mock-transduced (vector only) CD4+ T cells with 1 μM of Osimeritinib. After 48 hours of co-culture at a 1:1 effector:target cell ratio, T cells were washed away, and the number of viable H1975 cells was quantified using a calorimetric LDH assay (FIG. 57). Cell viability experiments were performed in triplicate and presented as % of control.

Row | Molecule | killing of H1975 cells (LDH)
1 | B1 | synergistic killing of H1975 lung adenocarcinoma cells upon EGFR inhibition
2 | B2 | synergistic killing of H1975 lung adenocarcinoma cells upon EGFR inhibition
3 | B3 | synergistic killing of H1975 lung adenocarcinoma cells upon EGFR inhibition
4 | B4 | synergistic killing of H1975 lung adenocarcinoma cells upon EGFR inhibition
5 | B5 | synergistic killing of H1975 lung adenocarcinoma cells upon EGFR inhibition
6 | B6 | synergistic killing of H1975 lung adenocarcinoma cells upon EGFR inhibition

Source: patent US11708423B2, “Chimeric engulfment receptor molecules and methods of use” (CERO THERAPEUTICS, INC., priority 2017, dated 2023)
